The text below walks through data of patent US20200087400A1 (EUREKA THERAPEUTICS, published 2020).

For assay [1], the target named is T1, HLA-A*02:01 on T2 cells with no peptide loaded (human).
T1 construct: TAP-deficient T2 cells, no peptide loaded from outside; also called T2 cells without peptide loading
The assay is described as follows: flow cytometry, phage on T2 cells, anti-M13 + R-PE anti-mouse IgG. A digest of the protocol:
(§1)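 Absorbance at 450 nm after HRP anti-M13 detection gave phage ELISA binding of individual clones, taken from pools panned on PSA146/HLA-A*02:01, in coated plates. In FACS, phage-stained T2 cells were detected by mouse anti-M13 then R-PE horse anti-mouse IgG.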
(In general: In flow cytometry, cells or beads pass a laser one at a time.)

The target of assay [2] is T2, PSA 146-154 peptide/HLA-A*02:01 complex on the cell surface (human).
T2 construct: also called PSA146/HLA-A*02:01; PSA146-loaded T2 cells
The assay is described as above. A digest of the protocol:
as §1

For assay [3], the target named is T3, control peptide A2E-17/HLA-A*02:01 complex on T2 cells (member of the P19 mixture) (human).
T3 construct: Loaded on T2 cells as part of the mixture of 19 control peptides
Description: flow cytometry, phage on T2 cells. In short, it runs like this: as §1

Assay [4] deals with T4, control peptide A2E-15/HLA-A*02:01 complex on T2 cells (member of the P19 mixture) (human).
T4 construct: Loaded on T2 cells as part of the mixture of 19 control peptides
The assay is described as follows: flow cytometry, phage on T2 cells. A digest of the protocol: as §1

Assay [5] has as its target T5, control peptide A2E-1/HLA-A*02:01 complex on T2 cells (member of the P19 mixture) (human).
T5 construct: Loaded on T2 cells as part of the mixture of 19 control peptides
The assay is described as follows: flow cytometry, phage on T2 cells. A digest of the protocol: as §1

Assay [6] has as its target T6, control peptide A2E-13/HLA-A*02:01 complex on T2 cells (member of the P19 mixture) (human).
T6 construct: Loaded on T2 cells as part of the mixture of 19 control peptides
The assay is described as follows: flow cytometry, phage on T2 cells. A digest of the protocol: as §1

The target in assay [7] is T7, control peptide A2E-2/HLA-A*02:01 complex on T2 cells (member of the P19 mixture) (human).
T7 construct: Loaded on T2 cells as part of the mixture of 19 control peptides
Description: flow cytometry, phage on T2 cells. In short, it runs like this: as §1

In assay [8] the target is T8, control peptide A2E-14/HLA-A*02:01 complex on T2 cells (member of the P19 mixture) (human).
T8 construct: Loaded on T2 cells as part of the mixture of 19 control peptides
Description: flow cytometry, phage on T2 cells. A digest of the protocol:
as §1

Assay [9] addresses T9, control peptide A2E-11/HLA-A*02:01 complex on T2 cells (member of the P19 mixture) (human).
T9 construct: Loaded on T2 cells as part of the mixture of 19 control peptides
The assay is described as follows: flow cytometry, phage on T2 cells. A digest of the protocol: as §1

For assay [10], the target named is T10, control peptide A2E-6/HLA-A*02:01 complex on T2 cells (member of the P19 mixture) (human).
T10 construct: Loaded on T2 cells as part of the mixture of 19 control peptides
Description: flow cytometry, phage on T2 cells. In short, it runs like this: as §1

Assay [11] deals with T11, control peptide A2E-9/HLA-A*02:01 complex on T2 cells (member of the P19 mixture) (human).
T11 construct: Loaded on T2 cells as part of the mixture of 19 control peptides
The assay is described as follows: flow cytometry, phage on T2 cells. A digest of the protocol: as §1

In assay [12] the target is T12, control peptide A2E-10/HLA-A*02:01 complex on T2 cells (member of the P19 mixture) (human).
T12 construct: Loaded on T2 cells as part of the mixture of 19 control peptides
Description: flow cytometry, phage on T2 cells. In short, it runs like this: as §1

Assay [13] addresses T13, control peptide A2E-4/HLA-A*02:01 complex on T2 cells (member of the P19 mixture) (human).
T13 construct: Loaded on T2 cells as part of the mixture of 19 control peptides
The assay is described as follows: flow cytometry, phage on T2 cells. In short, it runs like this: as §1

Assay [14] concerns the target T14, control peptide A2E-8/HLA-A*02:01 complex on T2 cells (member of the P19 mixture) (human).
T14 construct: Loaded on T2 cells as part of the mixture of 19 control peptides
The assay is described as follows: flow cytometry, phage on T2 cells. A digest of the protocol: as §1

Assay [15] deals with T15, control peptide A2E-16/HLA-A*02:01 complex on T2 cells (member of the P19 mixture) (human).
T15 construct: Loaded on T2 cells as part of the mixture of 19 control peptides
Description: flow cytometry, phage on T2 cells. In short, it runs like this:
as §1

Assay [16] deals with T16, control peptide A2E-19/HLA-A*02:01 complex on T2 cells (member of the P19 mixture) (human).
T16 construct: Loaded on T2 cells as part of the mixture of 19 control peptides
Description: flow cytometry, phage on T2 cells. In short, it runs like this: as §1

For assay [17], the target named is T17, control peptide A2E-3/HLA-A*02:01 complex on T2 cells (member of the P19 mixture) (human).
T17 construct: Loaded on T2 cells as part of the mixture of 19 control peptides
Description: flow cytometry, phage on T2 cells. A digest of the protocol:
as §1

In assay [18] the target is T18, control peptide A2E-5/HLA-A*02:01 complex on T2 cells (member of the P19 mixture) (human).
T18 construct: Loaded on T2 cells as part of the mixture of 19 control peptides
The assay is described as follows: flow cytometry, phage on T2 cells. In short, it runs like this:
as §1

The target of assay [19] is T19, control peptide A2E-7/HLA-A*02:01 complex on T2 cells (member of the P19 mixture) (human).
T19 construct: Loaded on T2 cells as part of the mixture of 19 control peptides
Description: flow cytometry, phage on T2 cells. A digest of the protocol:
as §1

For assay [20], the target named is T20, control peptide A2E-21/HLA-A*02:01 complex on T2 cells (member of the P19 mixture) (human).
T20 construct: Loaded on T2 cells as part of the mixture of 19 control peptides
The assay is described as follows: flow cytometry, phage on T2 cells. In short, it runs like this:
as §1

Assay [21] concerns the target T21, control peptide A2E-23/HLA-A*02:01 complex on T2 cells (member of the P19 mixture) (human).
T21 construct: Loaded on T2 cells as part of the mixture of 19 control peptides
Description: flow cytometry, phage on T2 cells. In short, it runs like this: as §1

For a further assay, the target named is T22, Bio-P19 member A2E-5 (chain 2 carries a C-terminal BirA substrate peptide (BSP), enzymatically biotinylated; the BSP letters are not given in the patent and are left out).
T22 construct: also called biotinylated control peptide A2E-5/HLA-A*02:01 monomer
Description: phage ELISA, streptavidin plate, anti-M13-HRP. In short, it runs like this:
(§2)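 Phage clones selected by panning against PSA146/HLA-A*02:01 are tested by ELISA in coated streptavidin plates, with HRP-labelled anti-M13 and substrate development read at 450 nm.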

The next assay addresses T23, Bio-P19 member A2E-16 (chain 2: C-terminal BirA substrate peptide (BSP), enzymatically biotinylated; its letters are not printed in the patent and it is left out).
T23 construct: also called biotinylated control peptide A2E-16/HLA-A*02:01 monomer
The assay is described as follows: phage ELISA, streptavidin plate, anti-M13-HRP. A digest of the protocol:
as §2

A further assay concerns the target T24, Bio-P19 member A2E-14 (chain 2: C-terminal BirA substrate peptide (BSP), enzymatically biotinylated; its letters are not printed in the patent and it is left out).
T24 construct: also called biotinylated control peptide A2E-14/HLA-A*02:01 monomer
Description: phage ELISA, streptavidin plate, anti-M13-HRP. In short, it runs like this: as §2
A general note: An ELISA detects its analyte on a solid surface through an enzyme-linked reagent.

B1: PSA146/HLA-A*02:01-specific scFv phage clone #17 (scFv, V domains shown)
VH: QMQLVQSGAEVKKPGESLKISCKGSGYSFTSYWIGWVRQMPGKGLEWMGIIYPGDSDTRYSPSFQGQVTISADKSISTAYLQWSSLKASDTAMYYCARLVVPDAFDIWGQGTMVTVSS
VL: QSVVTQPPSVSAAPGQKVTISCSGSSSNIGNNYVSWYQQLPGTAPKLLIYDNYKRPSGIPDRFSGSKSGTSATLGITGLQTGDEADYYCGTWDSSLSAGVFGGGTKLTVLG
On to B1, for which the binding result in [1] was “no binding”; in [2] it was “binds”; in [3] it was “no binding”; in assay [4], “no binding”; in assay [5] it was “no binding”; in assay [6], “no binding”. The binding result in assay [7], in assay [8], in assay [9], in [10], in assay [11] and in assay [12] was “no binding” in each case. The binding result in [13], in [14], in assay [15], in assay [16], in assay [17] and in assay [18] was “no binding” throughout. For the same molecule, the binding result (in [19]; in assay [20]; in assay [21]; with Bio-P19 member A2E-5; with Bio-P19 member A2E-16; with Bio-P19 member A2E-14) was “no binding” each time.

B2: PSA146/HLA-A*02:01-specific scFv phage clone #18 (scFv, V domains shown)
VH: QVQLVQSGAEVKKPGESLKISCKGSGYSFTSYWIGWVRQMPGKGLEWMGIIYPGDSDTRYSPSFQGQVTISADKSISTAYLQWSSLKASDTAMYYCARWGSRGFLDAFDIWGQGTMVTVSS
VL: QSVVTQPPSVSAAPGQRVTISCSGSSSNIGNNYVSWYQQLPGAAPRLLIYDNDKRPSGIPDRFSGSKSGTSATLGITGLQTGDEADYYCGTWDSSLSSGVFGGGTKLTVLG
As to B2, the binding result in [1] was “no binding”; in [2], “binds”; in assay [3] it was “no binding”; in [4], “no binding”; in assay [5], “no binding”; in assay [6] it was “no binding”. Further, the binding result in assay [7], in assay [8], in assay [9], in assay [10], in assay [11] and in [12] was “no binding” each time. Besides, the binding result in assay [13], in assay [14], in assay [15], in assay [16], in [17] and in assay [18] was “no binding” each time. Also, the binding result (in assay [19]; in assay [20]; in assay [21]; with Bio-P19 member A2E-5; with Bio-P19 member A2E-16; in the assay with Bio-P19 member A2E-14) was “no binding” in each case.
